Measurements reported in the supplement of paper PMC9112550, “Optimization of the antimicrobial peptide Bac7 by deep mutational scanning” (BMC Biology, 2022).
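Also: peptides expressed intracellularly from a pBAD plasmid library in pooled LB shake-flask culture, induced with 0.3% L-arabinose, DNA abundance read by NGS, three biological replicates, DESeq2 with apeglm shrinkage.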

These sequences were tested on Escherichia coli TOP10 (assay: shrunken log2 fold change of peptide-encoding DNA abundance (4.5 h post-induction vs induction); higher = less antimicrobial activity (less host growth inhibition)). Details: time post-induction: 4.5 h; library: site-saturation at positions 5, 18, 19, 20.
With RRIRSRPPRLPRPRPRPHCKPRP the “shrunken log2 fold change” value was -0.397. For RRIRSRPPRLPRPRPRPHDAPRP, the “shrunken log2 fold change” value was -0.142. For RRIRSRPPRLPRPRPRPHDCPRP, the “shrunken log2 fold change” value was -0.0708. In the case of RRIRSRPPRLPRPRPRPHEHPRP, the “shrunken log2 fold change” value is reported as 0.113. RRIRSRPPRLPRPRPRPHEKPRP was tested, and the “shrunken log2 fold change” value was 0.0101. With RRIRSRPPRLPRPRPRPHGCPRP the “shrunken log2 fold change” value was -0.0029. In the case of RRIRSRPPRLPRPRPRPHHGPRP, the “shrunken log2 fold change” value is reported as -0.0421. With RRIRSRPPRLPRPRPRPHIEPRP the “shrunken log2 fold change” value was -0.295. In the case of RRIRSRPPRLPRPRPRPHLDPRP, the “shrunken log2 fold change” value is reported as -0.156. RRIRSRPPRLPRPRPRPHLPPRP was tested, and the “shrunken log2 fold change” value was -0.27. In the case of RRIRSRPPRLPRPRPRPHMTPRP, the “shrunken log2 fold change” value is reported as -0.384. In the case of RRIRSRPPRLPRPRPRPHNPPRP, the “shrunken log2 fold change” value is reported as -0.531. In the case of RRIRSRPPRLPRPRPRPHQWPRP, the “shrunken log2 fold change” value is reported as -0.144. In the case of RRIRSRPPRLPRPRPRPHSNPRP, the “shrunken log2 fold change” value is reported as -0.358. With RRIRSRPPRLPRPRPRPHVGPRP the “shrunken log2 fold change” value was -0.0134. In the case of RRIRSRPPRLPRPRPRPHWFPRP, the “shrunken log2 fold change” value is reported as -0.0389. In the case of RRIRSRPPRLPRPRPRPHYVPRP, the “shrunken log2 fold change” value is reported as -0.488. With RRIRSRPPRLPRPRPRPIAVPRP the “shrunken log2 fold change” value was 0.22. For RRIRSRPPRLPRPRPRPICGPRP, the “shrunken log2 fold change” value was -0.056. In the case of RRIRSRPPRLPRPRPRPICMPRP, the “shrunken log2 fold change” value is reported as 0.177. With RRIRSRPPRLPRPRPRPICSPRP the “shrunken log2 fold change” value was 0.119. RRIRSRPPRLPRPRPRPIEEPRP was tested, and the “shrunken log2 fold change” value was 0.0156. In the case of RRIRSRPPRLPRPRPRPIEMPRP, the “shrunken log2 fold change” value is reported as -0.0731. RRIRSRPPRLPRPRPRPIEPPRP was tested, and the “shrunken log2 fold change” value was 0.0268. For RRIRSRPPRLPRPRPRPIETPRP, the “shrunken log2 fold change” value was -0.29. In the case of RRIRSRPPRLPRPRPRPIFGPRP, the “shrunken log2 fold change” value is reported as 0.0746. With RRIRSRPPRLPRPRPRPIFIPRP the “shrunken log2 fold change” value was -0.329. RRIRSRPPRLPRPRPRPIIKPRP was tested, and the “shrunken log2 fold change” value was 0.18. For RRIRSRPPRLPRPRPRPIIWPRP, the “shrunken log2 fold change” value was -0.174. With RRIRSRPPRLPRPRPRPIIYPRP the “shrunken log2 fold change” value was -0.182. In the case of RRIRSRPPRLPRPRPRPIMPPRP, the “shrunken log2 fold change” value is reported as -0.121. For RRIRSRPPRLPRPRPRPIMQPRP, the “shrunken log2 fold change” value was -0.216. In the case of RRIRSRPPRLPRPRPRPIMRPRP, the “shrunken log2 fold change” value is reported as 0.73. With RRIRSRPPRLPRPRPRPINAPRP the “shrunken log2 fold change” value was -0.377. RRIRSRPPRLPRPRPRPINPPRP was tested, and the “shrunken log2 fold change” value was -0.447. In the case of RRIRSRPPRLPRPRPRPIQVPRP, the “shrunken log2 fold change” value is reported as 0.0973. With RRIRSRPPRLPRPRPRPISDPRP the “shrunken log2 fold change” value was 0.103. With RRIRSRPPRLPRPRPRPIVPPRP the “shrunken log2 fold change” value was -0.0492. In the case of RRIRSRPPRLPRPRPRPIWQPRP, the “shrunken log2 fold change” value is reported as -0.0554. RRIRSRPPRLPRPRPRPIYGPRP was tested, and the “shrunken log2 fold change” value was -0.306. For RRIRSRPPRLPRPRPRPKAKPRP, the “shrunken log2 fold change” value was 0.626. RRIRSRPPRLPRPRPRPKARPRP was tested, and the “shrunken log2 fold change” value was 0.0932. RRIRSRPPRLPRPRPRPKASPRP was tested, and the “shrunken log2 fold change” value was -0.0199. With RRIRSRPPRLPRPRPRPKAWPRP the “shrunken log2 fold change” value was 0.148. RRIRSRPPRLPRPRPRPKCGPRP was tested, and the “shrunken log2 fold change” value was 0.397. RRIRSRPPRLPRPRPRPKEEPRP was tested, and the “shrunken log2 fold change” value was 0.0302. With RRIRSRPPRLPRPRPRPKFAPRP the “shrunken log2 fold change” value was 0.0751. In the case of RRIRSRPPRLPRPRPRPKFEPRP, the “shrunken log2 fold change” value is reported as 0.12. RRIRSRPPRLPRPRPRPKFKPRP was tested, and the “shrunken log2 fold change” value was -0.121. With RRIRSRPPRLPRPRPRPKFTPRP the “shrunken log2 fold change” value was -0.436. RRIRSRPPRLPRPRPRPKGCPRP was tested, and the “shrunken log2 fold change” value was 0.134. For RRIRSRPPRLPRPRPRPKGIPRP, the “shrunken log2 fold change” value was -0.357. In the case of RRIRSRPPRLPRPRPRPKHNPRP, the “shrunken log2 fold change” value is reported as -0.286. For RRIRSRPPRLPRPRPRPKHPPRP, the “shrunken log2 fold change” value was -0.194. RRIRSRPPRLPRPRPRPKIGPRP was tested, and the “shrunken log2 fold change” value was -0.0115. With RRIRSRPPRLPRPRPRPKILPRP the “shrunken log2 fold change” value was -0.112. In the case of RRIRSRPPRLPRPRPRPKIVPRP, the “shrunken log2 fold change” value is reported as -0.265. With RRIRSRPPRLPRPRPRPKKDPRP the “shrunken log2 fold change” value was 0.104. RRIRSRPPRLPRPRPRPKKIPRP was tested, and the “shrunken log2 fold change” value was 0.139. For RRIRSRPPRLPRPRPRPKKKPRP, the “shrunken log2 fold change” value was 0.195. In the case of RRIRSRPPRLPRPRPRPKLNPRP, the “shrunken log2 fold change” value is reported as -0.103. RRIRSRPPRLPRPRPRPKMGPRP was tested, and the “shrunken log2 fold change” value was -0.108. RRIRSRPPRLPRPRPRPKNAPRP was tested, and the “shrunken log2 fold change” value was 0.196. With RRIRSRPPRLPRPRPRPKNTPRP the “shrunken log2 fold change” value was -0.356. In the case of RRIRSRPPRLPRPRPRPKPHPRP, the “shrunken log2 fold change” value is reported as 0.213. With RRIRSRPPRLPRPRPRPKPTPRP the “shrunken log2 fold change” value was 0.174. RRIRSRPPRLPRPRPRPKPYPRP was tested, and the “shrunken log2 fold change” value was -0.153. RRIRSRPPRLPRPRPRPKRCPRP was tested, and the “shrunken log2 fold change” value was -0.0384. With RRIRSRPPRLPRPRPRPKRQPRP the “shrunken log2 fold change” value was 0.000345. RRIRSRPPRLPRPRPRPKRVPRP was tested, and the “shrunken log2 fold change” value was 0.0219. For RRIRSRPPRLPRPRPRPKRYPRP, the “shrunken log2 fold change” value was -0.163. For RRIRSRPPRLPRPRPRPKSMPRP, the “shrunken log2 fold change” value was -0.269. With RRIRSRPPRLPRPRPRPKTKPRP the “shrunken log2 fold change” value was 0.000308. With RRIRSRPPRLPRPRPRPKVAPRP the “shrunken log2 fold change” value was 0.509. For RRIRSRPPRLPRPRPRPKVPPRP, the “shrunken log2 fold change” value was 0.0195. With RRIRSRPPRLPRPRPRPKYDPRP the “shrunken log2 fold change” value was -0.0717. For RRIRSRPPRLPRPRPRPKYMPRP, the “shrunken log2 fold change” value was -0.677. With RRIRSRPPRLPRPRPRPLGQPRP the “shrunken log2 fold change” value was -0.0571. With RRIRSRPPRLPRPRPRPLHLPRP the “shrunken log2 fold change” value was -0.0832. For RRIRSRPPRLPRPRPRPLIEPRP, the “shrunken log2 fold change” value was -0.06. RRIRSRPPRLPRPRPRPLKDPRP was tested, and the “shrunken log2 fold change” value was -0.484. RRIRSRPPRLPRPRPRPLKFPRP was tested, and the “shrunken log2 fold change” value was -0.0436. With RRIRSRPPRLPRPRPRPLKGPRP the “shrunken log2 fold change” value was 0.0623. With RRIRSRPPRLPRPRPRPLKMPRP the “shrunken log2 fold change” value was 0.127. RRIRSRPPRLPRPRPRPLKNPRP was tested, and the “shrunken log2 fold change” value was -0.347. With RRIRSRPPRLPRPRPRPLLRPRP the “shrunken log2 fold change” value was -0.107. With RRIRSRPPRLPRPRPRPLMHPRP the “shrunken log2 fold change” value was -0.142. For RRIRSRPPRLPRPRPRPLNPPRP, the “shrunken log2 fold change” value was -0.0273. In the case of RRIRSRPPRLPRPRPRPLNWPRP, the “shrunken log2 fold change” value is reported as -0.0815. In the case of RRIRSRPPRLPRPRPRPLPDPRP, the “shrunken log2 fold change” value is reported as 0.266. For RRIRSRPPRLPRPRPRPLPQPRP, the “shrunken log2 fold change” value was 0.461. In the case of RRIRSRPPRLPRPRPRPLQAPRP, the “shrunken log2 fold change” value is reported as 0.302. RRIRSRPPRLPRPRPRPLQVPRP was tested, and the “shrunken log2 fold change” value was -0.157. In the case of RRIRSRPPRLPRPRPRPLRDPRP, the “shrunken log2 fold change” value is reported as 0.439. With RRIRSRPPRLPRPRPRPLSMPRP the “shrunken log2 fold change” value was -0.115. RRIRSRPPRLPRPRPRPLTHPRP was tested, and the “shrunken log2 fold change” value was -0.569. For RRIRSRPPRLPRPRPRPLTVPRP, the “shrunken log2 fold change” value was -0.216. RRIRSRPPRLPRPRPRPLYFPRP was tested, and the “shrunken log2 fold change” value was -0.682. RRIRSRPPRLPRPRPRPLYLPRP was tested, and the “shrunken log2 fold change” value was -0.212. RRIRSRPPRLPRPRPRPLYYPRP was tested, and the “shrunken log2 fold change” value was -0.547. With RRIRSRPPRLPRPRPRPMALPRP the “shrunken log2 fold change” value was 0.213. For RRIRSRPPRLPRPRPRPMAMPRP, the “shrunken log2 fold change” value was 0.0808. In the case of RRIRSRPPRLPRPRPRPMDIPRP, the “shrunken log2 fold change” value is reported as -0.00112. With RRIRSRPPRLPRPRPRPMDNPRP the “shrunken log2 fold change” value was -0.0175. With RRIRSRPPRLPRPRPRPMDPPRP the “shrunken log2 fold change” value was 0.00928. For RRIRSRPPRLPRPRPRPMEHPRP, the “shrunken log2 fold change” value was -0.122. RRIRSRPPRLPRPRPRPMETPRP was tested, and the “shrunken log2 fold change” value was 0.585. In the case of RRIRSRPPRLPRPRPRPMFRPRP, the “shrunken log2 fold change” value is reported as -0.338. In the case of RRIRSRPPRLPRPRPRPMGQPRP, the “shrunken log2 fold change” value is reported as 0.0126.
